# T1: TR2 on the surface of human cells (MDA-MB-231, HT-29, PBL T cells) (human, UniProt Q92956 39-283)
# T1 sequence (looked up): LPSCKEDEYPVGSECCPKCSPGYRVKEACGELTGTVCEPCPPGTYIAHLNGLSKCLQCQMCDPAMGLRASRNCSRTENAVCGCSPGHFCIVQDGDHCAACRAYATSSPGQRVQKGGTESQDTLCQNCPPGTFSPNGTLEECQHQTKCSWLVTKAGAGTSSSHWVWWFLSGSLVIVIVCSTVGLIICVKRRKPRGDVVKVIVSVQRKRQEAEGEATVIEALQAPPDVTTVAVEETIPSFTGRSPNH
# Columns and labels:
# [1] = target: Fas on TIL1200 cells (human) (UniProt P25445); experiment: cell-based or functional assay
# Fas on TIL1200 cells (human), sequence (P25445 26-335): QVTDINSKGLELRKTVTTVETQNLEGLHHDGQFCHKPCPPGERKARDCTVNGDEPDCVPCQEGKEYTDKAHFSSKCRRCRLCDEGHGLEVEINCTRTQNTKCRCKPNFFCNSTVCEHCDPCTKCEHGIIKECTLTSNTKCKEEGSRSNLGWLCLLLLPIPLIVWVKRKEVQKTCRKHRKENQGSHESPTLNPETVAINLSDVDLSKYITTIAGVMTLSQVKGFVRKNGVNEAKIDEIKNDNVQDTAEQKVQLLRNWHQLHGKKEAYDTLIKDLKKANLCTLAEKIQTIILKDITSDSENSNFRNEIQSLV
# [2] = target: T1, TR2 on the surface of human cells …; experiment: cell-based or functional assay
# [3] = target: LTβR on the surface of human cancer cells (MDA-MB-231, HT-29) (human, UniProt P36941 31-435); experiment: cell-based or functional assay
# LTβR on the surface of human cancer cells (MDA-MB-231, HT-29), sequence (P36941 31-435): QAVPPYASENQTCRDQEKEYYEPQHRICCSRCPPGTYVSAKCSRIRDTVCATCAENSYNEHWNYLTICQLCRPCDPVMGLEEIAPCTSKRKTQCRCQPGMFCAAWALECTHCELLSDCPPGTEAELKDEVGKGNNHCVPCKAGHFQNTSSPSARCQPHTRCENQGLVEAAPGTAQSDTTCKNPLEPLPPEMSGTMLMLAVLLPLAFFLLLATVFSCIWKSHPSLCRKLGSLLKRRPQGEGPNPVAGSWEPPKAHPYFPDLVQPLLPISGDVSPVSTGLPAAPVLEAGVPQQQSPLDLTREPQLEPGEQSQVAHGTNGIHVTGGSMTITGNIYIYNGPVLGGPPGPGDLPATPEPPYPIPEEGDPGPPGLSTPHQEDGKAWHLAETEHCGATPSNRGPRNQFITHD
# [4] = target: T2, human LTβR-Fc fusion protein (extracellular domain of lymphotoxin-β receptor fused to IgG1 Fc) (human, UniProt P36941 31-227); experiment: BIAcore, LTβR-Fc immobilized, CHO conditioned media
# T2 construct: extracellular domain; Made in baculovirus-infected Sf21 cells; also called sLTβR-Fc; lymphotoxin-β receptor-Fc fusion protein; not shown: IgG1 Fc from vector pUC19-IgG1-Fc; hybridomas were counter-screened on human IgG1
# T2 sequence (P36941 31-227 limits assumed): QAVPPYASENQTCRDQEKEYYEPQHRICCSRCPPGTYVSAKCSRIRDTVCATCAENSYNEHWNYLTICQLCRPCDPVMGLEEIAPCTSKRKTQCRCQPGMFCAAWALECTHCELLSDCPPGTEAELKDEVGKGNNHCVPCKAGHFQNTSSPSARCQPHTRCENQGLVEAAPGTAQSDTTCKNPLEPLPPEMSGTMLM
molecule,measurement,setting,value
apoptosis inducing anti-Fas Mab CH-11 (antibody),apoptosis of TIL1200 cells,[1],90%
"recombinant soluble form of AIM II protein (sAIM II), Flag-tagged, amino acids 74-240 of AIM II (ligand, not shown: small tags and cut ends) DGPAGSWEQLIQERRSHEVNPAAHLTGANSSLTGSGGPLLWETQLGLAFLRGLSYHDGALVVTKAGYYYIYSKVQLGGVGCPLGLASTITHGLYKRTPRYPEELELLVSQQSPCGRATSSSRVWWDSSFLGGVVHLEAGEEVVVRVLDERLVRLRDGTRSYFGAFMV",IC50 of cytotoxic effect on HT-29 cells in the presence of 10 u/ml IFNγ,[2],< 1 ng/mL
same,IC50 of cytotoxic effect on HT-29 cells in the presence of 10 u/ml IFNγ,[3],< 1 ng/mL
"ck-beta8/AIM II fusion protein, extracellular region of AIM II (amino acids 60-240), from CHO 11 conditioned media (ligand, Two N-termini were found (40% each): SQAGS... and GSQLH; the second species lacks the first three residues SQA; also called CHO-11 AIM II; ck-beta-8-AIM2) SQAGSQLHWRLGEMVTRLPDGPAGSWEQLIQERRSHEVNPAAHLTGANSSLTGSGGPLLWETQLGLAFLRGLSYHDGALVVTKAGYYYIYSKVQLGGVGCPLGLASTITHGLYKRTPRYPEELELLVSQQSPCGRATSSSRVWWDSSFLGGVVHLEAGEEVVVRVLDERLVRLRDGTRSYFGAFMV",binding result,[4],binds
